Here are results for 24 sequences from the DeepSol protein solubility set.

This series in a line: soluble on expression in E. coli; label from the status in PepcDB or PDB records.
With “MGSDKIHHHHHHMKIRYGIIGVGGHGKNRHLIPLIKLKNKVEIVAVADVKKERCEEVSSQFNIKCYLDYMEMVEKESLNAVSIVTPTGLHSRIAINVLNKGVNVLVDKPLGSNLEEVKEVVNTARNKGLKLMVGYWSRFSPALQYGKEIIHNGLLGEPYVAYGYLVRRRGIPGIPTFIDKTLSGGRGALLDIGCYLIDNLLSLLKFRKPISVMGKVYTKFGNVKEEVKFNWGSWDPENFSLDDYAVGLVKLEGDVSLILEVGWSANVSHVEEKSYVRILGDKGGIEGSGHEAIVDISFHSRTENFLTDTKPVLRKVDPYFEMINAFVDSILTDREPPITGEESVTLHSIIDGIYKSSTEDKEVKISL”, the “soluble on expression in E. coli” value is recorded as “not soluble”.
The value for “SLENENQLTHQFPTLSRWNPMFISDVHKISFHPHLQRYIGFWMGFPIRWIQIVGYIAAIDIYEGKHVLTVDDCSGMVLRVVFIIQDDFSMSKRAISMSPGNVVCVFGKINSFRSEVELIAQSFEELRDPNDEWKAWQKRMRYKKNLTKISKNHHSIIRT” was “soluble”; that for “MSLDRVEEQRITIPDFQKLVEAQTGSEISMDDFYPASSVRPISDFVAAIEGEPQVTFTCHQHCGTATYIFLEDDKIIPITRFIDVDRFFEVLEKGKDEIEEGGIAAKARVIARSAIELPKTLDKSEAPESVDIKRILTSIFKERSYTALGEFHYNTLLISCMHFMDPWNFDIDRVRRCVIHYALPDGRIVPFCTMNSIHRADVERHFAKPLNESKEGHHHHHH” was “not soluble”.
The value for “MKQDMWELRKIQSQGITDNAQYPAGTYIVFTAAAPYIPLFEQHGKDDIALSLVRHEEAWWIVNHSDELCCAVNEQVMEPHHRMRLNDGDTIEWGLSSWCLARTNDESRPDVSFPQLVQSSESVAEYLDLDWFKQQQLNPQNPFDIIPVRETASSYTGHEADSTLHQLYQEYQQALRPSGQEKPLRAKPFPRNEDAVTQDLTSLYDKKGDTDTLQDMVAGAPGIDAILDTLDTTGEGEMHWLAMESMPDILQLLSPELGGKTAHSEILPDLTRREHRIIGIDSHYRITPTQKNGNTAHEKN” was “not soluble”; that for “MEQLTLQVEGMSCGHCVNAIESSVKELNGVEQVKVQLAEGTVEVTIDSSVVTLKDIVAVIEDQGYDVQ” was “not soluble”; that for “MDIDECESGAHQCSEAQTCVNFHGGYRCVDTNRCVEPYIQVSENRCLCPASNPLCRE” was “soluble”.
On to “ALNPNEHQLIKNVFGFIDVTVRQVMTPRTSINAIDIDLPLEYVLNKIVNEGYSRLPVYKDNIDNIIGILYTKDLLKMMNKGEQIKLQSAMRQPYFVPETKKINELLKNLQAKHLHMAIIIDEFGGVSGITTIEDIIEELVGEIQDEHDDEAPVVEQVSA”, for which the “soluble on expression in E. coli” value is given as “not soluble”.
With “AVINHDAVPVWPQPEPADATQALAVRFKPQLDVVNGCQPYPAVDPQGNTSGGLKPSGSQAAACRDMSKAQVYSRSGTYNGYYAIMYSWYMPKDSPSTGIGHRHDWENVVVWLDNAASANIVALSASAHSGYKKSFPADKSYLDGITAKISYKSTWPLDHELGFTTSAGKQQPLIQWEQMTQAARDALESTDFGNANVPFKSNFQDKLVKAFFQ” the entry was “soluble”; with “MSLTSEIVNSAWKVIPMFESRSIPLTVDFYTKTLGFELGSVKPEDNESELYFCSLAIGKKADANFYFSKVTPETFKSSHAMIGLGTRQLDDYYVYLKGKIEVEFSEDIEDKPWGFRQFTIKDTDGNSLTFFKFLEGGNPGDEGHHHHHH”, “soluble”; with “MSAIPENANVTVLNKNEKKARELIGKLGLKQIPGIIRVTFRKKDNQIYAIEKPEVFRSAGGNYVVFGEAKVDNFTQKLAAAQQQAQASGIMPSNEDVATKSPEDIQADMQAAAEGSVNAAAEEDDEEGEVDAGDLNKDDIELVVQQTNVSKNQAIKALKAHNGDLVNAIMSLSK”, “soluble”.
For “MTKRHVSLPADAKDVRRAFVSGVDERLSAAETPDELATAVTGTLADLRGERDAYEAWRDGDDVRPAAAARLATLDPRNASLESEYYAEKDEAAFARSKPLQWLWRQFDTTPLADNVDVALPFRRMLAGHLFAGVGEDVRLFKGITMTYGHNIELGDNAVVHDGVHLDDRGELVVGARASVSNGAHLYTHDHDVVDQTDVTNYRTEIGADARVTQGALVRAGVRVGENALVGSRSVVQGDVPAHHIAVGSPAESVRVKPGWEAVAAPLDAGLEHHHHHH”, the “soluble on expression in E. coli” value is listed as “soluble”.
On to “YHLSLKQVNRLFDDDMVDFGEAALRLLDLATEDQAGEDGSITEIIERSREAIQGLPLLRRESALGYALWRDGQPLLSSLNLPPEITAQGPGFSTVEAQGTHWRVLQLNIDGFQIWISENLIYRQHTMNLL”, for which the “soluble on expression in E. coli” value is given as “not soluble”.
With “MGSDKIHHHHHHMQNKNKTVVKSMALLNLFLHKPSLTLSELVSLTGMPKTSVHRMVSSLEEMGFLSRDASGAYSLGLVFLEFGQLVADRLDIRKIAKPVMEELCREVDEAVQLIMRDGNEAIYVEKIEGTQTVRLYTAIGRRSPLYAGACARSILSFLPREEIEAYIKQTELISIGSGTITDPEKLLQEIDASVQNGYTVSYSELENYTAAIGAPIFNHERQVAAGISIAGFEARFTEDRLPYLTEKVKDAALQISRK” the entry was “not soluble”; with “SNAMDMVTVTAKTVEEAVTKALIELQTTSDKLTYEIVEKGSAGFLGIGSKPAIIRAKRKETLQDKAIEFLEQVFDAMNMAVDISVEYNETEKEMNVNLKGDDMGILIGKRGQTLDSLQYLVSLVVNKSSSDYIRVKLDTENYRERRKETLETLAKNIAYKVKRTKRSVSLEPMNPYERRIIHAALQNDKYVVTRSDGEEPFRHVIISLKRENRRDRNDRSDRNEK”, “soluble”; with “MSNSNKLIAEKNGSRYGRMIHPWLRKKQDMLADTPSRREGMTYEEELSKRQQGGVFIFDIAMQLTHGKGEHGLSGVAATLFNRFFNVHSLKRCDFRDVAAACVFLAGKNEDAPKKLKYVVTQLWQFKYPHNKQFQSEQHFLDQCNVVTLIEDVLLKTISFDINVDLPHQYVLKLMRDVEKGRNVYKDMVKTAYYMATDVLIITDWSVRYSCASIATACVNIAAFFHNINMDDIVPFELSDRWYRLEDQSMTREEVEAMTKEFLDIFSRNPQFHIGSLKKIDPLGKVKIVGMPPQVSSTVTPSGSSSNLKKIDLESYKGRPKPLSNSSDSPSTRPSFLPDVKNQKVVEQELMEQRMKEAAQQKIHRNGHRPSSSSHPLHHHSTSSSASNNSNHQNRSSSGLSAHQHQKPYNEDSRSAKRSMMYEETNSSKKPRIDYKMSFVASSSTTIATMHNDHFSQTTHQQNISTYARGVNEMMLNQVAPPPLMSVSAQPSTYQKMCMEYQRNPADSRHTMSSTQQISPPDEPSPPVSQILLPPPPPPPILPPRLDEMEEGELV”, “not soluble”.
With “MYQSIHVNKGQGGWGTGLDLTPSEPRTKVVSITGGGIHPVALKIAELSGAEAVDGFKNSIPEEEMMCVVIDCGGTARIGVYPMKRIPTVDILPSSPSGPLAKHITEDIFVSGVKPEDIMVTSSEADPGKPFDREKFKEDYAKIKEDQQEASDLKEGYLVKFSRGIGKAMGVFYQAGRDSVDMLIKN”, the “soluble on expression in E. coli” value is listed as “not soluble”.
For “MSALIVSDIDGTLIDSRERIPSAVKESLAAAQRAGVSFVVATGRPARWIHPIIDQLYTPPTLCVCANGAVIYDPACDSITHRRELAPDAMRTVVRVAREALSDLGGCGVGVERAGVSAHDMPGELFMVTPDFVHSWESIEHSTVELDRVLARSAVKLLLRNDALTSEQMHRLVAPVVPADVAHVTYSMPDGLLEVMQPGVNKSSALDVVAQDLGVDPADAIAFGDMLNDLEMIRWAGTGVAMGNACDQLQRAADVVAPTNDEAGIAVVLREWLQG”, the “soluble on expression in E. coli” value is on record as “not soluble”.
With “MRKDETSNTSPDISAAQPASALRYHLRPPRRNDGAAIHQLVSECPPLDLNSLYAYLLLCEHHAHTCVVAESPGGRIDGFVSAYLLPTRPDVLFVWQVAVHSRARGHRLGRAMLGHILERQECRHVRHLETTVGPDNQASRRTFAGLAGERGAHVSEQPFFDRQAFGGADHDDEMLLRIGPFTHPPH” the entry was “not soluble”; with “MCMGIFNRISNMIKAKTNSALDEMENPVELLDQKIRDMEKSFNEGKRSSAQIFGNLKDTEKKMNEAKEESAQYDEKVRLAMSKGNEELAKKALKLKLDSDKKFESLKASYEGQRAKADVLKGKLVELEKELDKTRSYRDEAVARLNNAEASKQINEVIANVQSKSNSINIDDIERSISRKESYAAGLEELKGESLDDEFAKLEELSLDDELNKYRTQNTQEDKTSDSEVDLELEKYKNKLEHHHHHH”, “not soluble”.
With “MVWMVELKEPFATLWRGKDPFEEVKTLQGEVFRELETRRTLRFEMAGKSYFLKWHRGTTLKEIIKNLLSLRMPVLGADREWNAIHRLRDVGVDTMYGVAFGEKGMNPLTRTSFIITEDLTPTISLEDYCADWATNPPDVRVKRMLIKRVATMVRDMHAAGINHRDCYICHFLLHLPFSGKEEELKISVIDLHRAQLRTRVPGRWRDKDLIGLYFSSMNIGLTQRDIWRFMKVYFAAPLKDILKQEQGLLSQAEAKATKIRERTIRKSL” the entry was “not soluble”; with “MEQVVIVDAIRTPMGRSKGGAFRNVRAEDLSAHLMRSLLARNPSLTAATLDDIYWGCVQQTLEQGFNIARNAALLAEIPHSVPAVTVNRLCGSSMQALHDAARMIMTGDAQVCLVGGVEHMGHVPMSHGVDFHPGLSRNVAKAAGMMGLTAEMLSRLHGISREMQDQFAARSHARAWAATQSGAFKTEIIPTGGHDADGVLKQFNYDEVIRPETTVEALSTLRPAFDPVSGTVTAGTSSALSDGAAAMLVMSESRARELGLKPRARIRSMAVVGCDPSIMGYGPVPASKLALKKAGLSASDIDVFEMNEAFAAQILPCIKDLGLMEQIDEKINLNGGAIALGHPLGCSGARISTTLINLMERKDAQFGLATMCIGLGQGIATVFERV”, “soluble”.
Consider “TPPSGSGNWESLFNGLYRLQQRQRRKRKELTNLIRRFRNGAESLPDAVVVFRAEGNIVWCNRLAQHLLGFHWPEDSGQPISNLIRTPDFIKYLNKKDFSEPLEMRSPLNVERMLELRIVPYTEGEHLMVVRD”, for which the “soluble on expression in E. coli” value was “not soluble”.
Turning to “MSLDGQGEAVVEGHEAALLLSESRASVDPELRSAIATLPESMRRVALYHFGWQHADGTPAAGNAGKAIRPALVLTAAAALGGPGARAAAVRAAAAVELVHNFTLLHDDVMDRDATRRHRPTAWTVFGDADAILAGDALQALALRLFAADPHPASAAAATRLADCVMELCEGQHADTAMERRPPDEVTLDETLVMAEAKTGALLGCACAVGALYAGAATEDVEALDAFGREAGMAFQLIDDVIGIWGDPRHTGKPAGADLAARKKSLPVVAALTSGTPAAAELAELYTGPYDENKEDLERTALAVERAGGRDWAQAQAADRMARAMQELARAVPEPEAAGGLLALAEFVTRRSTEGHHHHHH”, the “soluble on expression in E. coli” value is listed as “soluble”.
For the sequence “MGSDKIHHHHHHMQAAWLLGALVVPQLLSFGHGARGPGREWEGGWGGALEEERERESQMLKNLQEALGLPTGVGNEDNLAENPEDKEVWETTETQGEEEEEEITTAPSSSPNPFPSPSPTPEDTVTYILGRLASLDAGLHQLHVRLHVLDTRVVELTQGLRQLRDAASDTRDSVQALKEVQDRAEQEHGRLEGCLKGLRLGHKCFLLSRDFETQAAAQARCKARGGSLAQPADRQQMDALSRYLRAALAPYNWPVWLGVHDRRSEGLYLFENGQRVSFFAWHRAFSLESGAQPSAATHPLSPDQPNGGVLENCVAQASDDGSWWDHDCERRLYFVCEFPF”, the “soluble on expression in E. coli” value is given as “not soluble”.
